The values that follow come from paper PMC9672333 (2022).

This assay addresses Wild type spike RBD (UniProt P0DTC2) (SARS-CoV-2, UniProt P0DTC2 319-541).

B1: Imdevimab (antibody, V domains shown)
VH: QVQLVESGGGVVQPGRSLRLSCAASGFTFSNYAMYWVRQAPGKGLEWVAVISYDGSNKYYADSVKGRFTISRDNSKNTLYLQMNSLRTEDTAVYYCASGSDYGDYLLVYWGQGTLVTVSS
VL: QSALTQPASVSGSPGQSITISCTGTSSDVGGYNYVSWYQQHPGKAPKLMIYDVSKRPSGVSNRFSGSKSGNTASLTISGLQSEDEADYYCNSLTSISTWVFGGGTKLTVL
Take B1: the affinity, expressed as Kd, was 65 nM.

B2: Tixagevimab Biosimilar (antibody, V domains shown)
VH: QMQLVQSGPEVKKPGTSVKVSCKASGFTFMSSAVQWVRQARGQRLEWIGWIVIGSGNTNYAQKFQERVTITRDMSTSTAYMELSSLRSEDTAVYYCAAPYCSSISCNDGFDIWGQGTMVTVSS
VL: not shown
Consider B2, for which the dissociation constant Kd (usually the constant that tells how readily two partners part at equilibrium) was determined as 0.6 nM.

B3: Casirivimab (antibody, V domains shown)
VH: QVQLVESGGGLVKPGGSLRLSCAASGFTFSDYYMSWIRQAPGKGLEWVSYITYSGSTIYYADSVKGRFTISRDNAKSSLYLQMNSLRAEDTAVYYCARDRGTTMVPFDYWGQGTLVTVSS
VL: DIQMTQSPSSLSASVGDRVTITCQASQDITNYLNWYQQKPGKAPKLLIYAASNLETGVPSRFSGSGSGTDFTFTISGLQPEDIATYYCQQYDNLPLTFGGGTKVEIK
In turn, B3 showed a Kd of 0.8 nM.
